Data published in patent publication US20040180417.

What was measured:
[1] = biological target: [proBACES]FG/V5, doubly tagged soluble form of mouse proBACE
[2] = biological target: T1, PC cleavage site-spanning peptide of proBACE
T1 chain: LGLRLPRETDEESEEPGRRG

[3] = biological target: T2, 20 aa synthetic peptide spanning the β-secretase cleavage site of βAPPSW
T2 chain: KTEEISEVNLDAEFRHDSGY

B1: mouse PC5-A (protein)
chain: DYDLSHAQSTYFNDPKWPSMWYMHCSDNTHPCQSDMNIEGAWKRGYTGKNIVVTILDDGIERTHPDLMQNYDALASCDVNGNDLDPMPRYDASNENKHGTRCAGEVAATANNSHCTVGIAFNAKIGGVRMLDGDVTDMVEAKSVSYNPQHVHIYSASWGPDDDGKTVDGPAPLTRQAFENGVRMGRRGLGSVFVWASGNGGRSKDHCSCDGYTNSIYTISISSTAESGKKPWYLEECSSTLATTYSSGESYDKKIITTDLRQRCTDNHTGTSASAPMAAGIIALALEANPFLTWRDVQHVIVRTSRAGHLNANDWKTNAAGFKVSHLYGFGLMDAEAMVMEAEKWTTVPQQHVCVESTDRQIKTIRPNSAVRSIYKASGCSDNPNHHVNYLEHVVVRITITHPRRGDLAIYLTSPSGTRSQLLANRLFDHSMEGFKNWEFMTIHCWGERAAGDWVLEVYDTPSQLRNFKTPGKLKEWSLVLYGTSVQPYSPTNEFPKVERFRYSRVEDPTDDYGAEDYAGPCDPECSEVGCDGPGPDHCSDCLHYYYKLKNNTRICVSSCPPGHYHADKKRCRKCAPNCESCFGSHGNQCLSCKYGYFLNEETSSCVTQCPDGSYEDIKKNVCGKCSENCKACIGFHNCTECKGGLSLQGSRCSVTCEDGQFFNGHDCQPCHRFCATCSGAGADGCINCTEGYVMEEGRCVQSCSVSYYLDHSSEGGYKSCKRCDNSCLTCNGPGFKNCSSCPSGYLLDLGTCQMGAICKDATEESWAEGGFCMLVKKNNLCQRKVLQQLCCKTCTFQG
- in vitro processing of the R45A mutant of proBACES, Western blot ([proBACES-R45A]FG/V5): none of the PCs tested could cleave this form
- in vitro processing of proBACE into BACE, Western blot with FG or V5 antibodies [1]: which was superior to the abilities of PC5 and PACE4 to carry out this cleavage
- cleavage of the peptide spanning the N-terminal furin-consensus site, RP-HPLC and MALDI-TOF [2]: The best processing rates were observed with furin and PC5 (not shown)

B2: [BACES]V5, soluble mouse BACE ending at Thr454 followed by a V5 epitope (protein)
chain: THLGIRLPLRSGLAGPPLGLRLPRETDEESEEPGRRGSFVEMVDNLRGKSGQGYYVEMTRGQPLTKLNILVDTGSSNFAVGAAPHPFLHRYYQRQLSSTYRDLRKGVYVPYTQGKWEGELGTDLVSIPHGPNVTVRANIAAITESDKFFINGSNWEGILGLAYAEIARPDDSLEPFFDSLVKQTHIPNIFSLQLCGAGFPLNQTEALASVGGSMIIGGIDHSLYTGSLWYTPIRREWYYEVIIVRVEINGQDLKMDCKEYNYDKSIVDSGTTNLRLPKKVFEAAVKSIKAASSTEKFPDGFWLGEQLVCWQAGTTPWNIFPVISLYLMGEVTNQSFRITILPQQYLRPVEDVATSQDDCYKFAVSQSSTGTVMGAVIMEGFYVVFDRARKRIGFAVSACHVHDEFRTAAVEGPFVTADMEDCGYNIPQTDESTGKPIPNPLLGLDST
- cleavage of the peptide spanning the N-terminal furin-consensus site [2]: no detectable cleavage of this peptide was observed by either crude or partially purified soluble BACE [BACES]V5 (not shown)

B3: PACE4 (protein)
chain: QVRSDPQALYFNDPIWSNMWYLHCGDKNSRCRSEMNVQAAWKRGYTGKNVVVTILDDGIERNHPDLAPNYDSYASYDVNGNDYDPSPRYDASNENKHGTRCAGEVAASANNSYCIVGIAYNAKIGGIRMLDGDVTDVVEAKSLGIRPNYIDIYSASWGPDDDGKTVDGPGRLAKQAFEYGIKKGRQGLGSIFVWASGNGGREGDYCSCDGYTNSIYTISVSSATENGYKPWYLEECASTLATTYSSGAFYERKIVTTDLRQRCTDGHTGTSVSAPMVAGIIALALEANSQLTWRDVQHLLVKTSRPAHLKASDWKVNGAGHKVSHFYGFGLVDAEALVVEAKKWTAVPSQHMCVAASDKRPRSIPLVQVLRTTALTSACAEHSDQRVVYLEHVVVRTSISHPRRGDLQIYLVSPSGTKSQLLAKRLLDLSNEGFTNWEFMTVHCWGEKAEGQWTLEIQDLPSQVRNPEKQGKLKEWSLILYGTAEHPYHTFSAHQSRSRMLELSAPELEPPKAALSPSQVEVPEDEEDYTAQSTPGSANILQTSVCHPECGDKGCDGPNADQCLNCVHFSLGSVKTSRKCVSVCPLGYFGDTAARRCRRCHKGCETCSSRAATQCLSCRRGFYHHQEMNTCVTLCPAGFYADESQKNCLKCHPSCKKCVDEPEKCTVCKEGFSLARGSCIPDCEPGTYFDSELIRCGECHHTCGTCVGPGREECIHCAKNFHFHDWKCVPACGEGFYPEEMPGLPHKVCRRCDENCLSCAGSSRNCSRCKTGFTQLGTSCITNHTCSNADETFCEMVKSNRLCERKLFIQFCCRTCLLAG
- in vitro processing of the R45A mutant of proBACES, Western blot ([proBACES-R45A]FG/V5): none of the PCs tested could cleave this form
- in vitro processing of proBACE into BACE, Western blot with FG or V5 antibodies [1]: which was superior to the abilities of PC5 and PACE4 to carry out this cleavage

B4: rat PC7 (protein)
chain: SIHFNDPKYPQQWHLNNRRSPGRDINVTGVWERNVTGRGVTVVVVDDGVEHTVQDIAPNYSPEGSYDLNSNDPDPMPHPDEENGNHHGTRCAGEIAAVPNNSFCAVGVAYGSRIAGIRVLDGPLTDSMEAVAFNKHYQINDIYSCSWGPDDDGKTVDGPHQLGKAALQHGVMAGRQGFGSIFVVASGNGGQHNDNCNYDGYANSIYTVTIGAVDEEGRMPFYAEECASMLAVTFSGGDKMLRSIVTTDWDLQKGTGCTEGHTGTSAAAPLAAGMIALMLQVRPCLTWRDVQHIIVFTATQYEDHRADWLTNEAGFSHSHQHGFGLLNAWRLVNAAKIWTSVPYLASYVSPMLKENKAVPRSPHSLEVLWNVSRTDLEMSGLKTLEHVAVTVSITHPRRGSLELKLFCPSGMMSLIGAPRSMDSDPNGFNDWTFSTVRCWGERARGVYRLVIRDVGDEPLQVGILQQWQLTLYGSTWSPVDIKDRQSLLESAMSGKYLHDDFTLPCPPGLKIPEEDGYSITPNTLKT
- in vitro processing of the R45A mutant of proBACES, Western blot ([proBACES-R45A]FG/V5): none of the PCs tested could cleave this form
- in vitro processing of proBACE into BACE, Western blot with FG or V5 antibodies [1]: PC7 is barely, if at all, able to perform this reaction
- cleavage of the peptide spanning the N-terminal furin-consensus site, RP-HPLC and MALDI-TOF [2]: PC7 could barely cleave this sequence, even when a 10-fold excess (as assessed by pERTKR-MCA hydrolysis) of activity was employed

B5: [proBACES]FG/V5, doubly tagged soluble form of mouse proBACE (protein)
chain: DYKDDDDKQGTHLGIRLPLRSGLAGPPLGLRLPRETDEESEEPGRRGSFVEMVDNLRGKSGQGYYVEMTRGQPLTKLNILVDTGSSNFAVGAAPHPFLHRYYQRQLSSTYRDLRKGVYVPYTQGKWEGELGTDLVSIPHGPNVTVRANIAAITESDKFFINGSNWEGILGLAYAEIARPDDSLEPFFDSLVKQTHIPNIFSLQLCGAGFPLNQTEALASVGGSMIIGGIDHSLYTGSLWYTPIRREWYYEVIIVRVEINGQDLKMDCKEYNYDKSIVDSGTTNLRLPKKVFEAAVKSIKAASSTEKFPDGFWLGEQLVCWQAGTTPWNIFPVISLYLMGEVTNQSFRITILPQQYLRPVEDVATSQDDCYKFAVSQSSTGTVMGAVIMEGFYVVFDRARKRIGFAVSACHVHDEFRTAAVEGPFVTADMEDCGYNIPQTDESTGKPIPNPLLGLDST
- β-secretase activity of affinity-purified proBACE on the synthetic peptide substrate [3]: the resulting material had no detectable activity unless first pre-incubated with furin
